How the values were obtained:
Test in all cases: BLI; avid
[1] = target: ANT 98
[2] = target: ANT 80
[3] = target: ANT 99

B1: FZD5 (receptor)
chain: ASKAPVCQEITVPMCRGIGYNLTHMPNQFNHDTQDEAGLEVHQFWPLVEIQCSPDLRFFLCSMYTPICLPDYHKPLPPCRSVCERAKAGCSPLMRQYGFAWPERMSCDRLPVLGRDAEVLCMDYNRSEATTAPPRPFPAKP
- Kd [1]: 2 nM
- Kd [2]: 0.05 nM
- Kd [3]: 0.4 nM

From patent US20260250398A1 (published 2026)
